Results on 2 proteins are retold here after paper PMC4862333 (The Journal of Cell Biology, 2016).

The series “native gel or EMSA” concerns the molecule itself. As to the kind of experiment: native gel or EMSA. In general terms: A gel shift assay detects complexes by their altered migration in electrophoresis.
Series [1] deals with the molecule itself. As to the kind of experiment: in vitro oligomerization assay.

B1: His-Sumo-tagged Cab45 (recombinant) (natural protein, human, UniProt Q9BRK5 37-362, looked up)
chain: RPANHSSTRERVANREENEILPPDHLNGVKLEMDGHLNRGFHQEVFLGKDLGGFDEDAEPRRSRRKLMVIFSKVDVNTDRKISAKEMQRWIMEKTAEHFQEAMEESKTHFRAVDPDGDGHVSWDEYKVKFLASKGHSEKEVADAIRLNEELKVDEETQEVLENLKDRWYQADSPPADLLLTEEEFLSFLHPEHSRGMLRFMVKEIVRDLDQDGDKQLSVPEFISLPVGTVENQQGQDIDDNWVKDRKKEFEELIDSNHDGIVTAEELESYMDPMNEYNALNEAKQMIAVADENQNHHLEPEEVLKYSEFFTGSKLVDYARSVHEEF
Turning to B1, the binding result in the series “native gel or EMSA” is “binds”.

B2: ATTO488-labeled recombinant Cab45 (natural protein, human, UniProt Q9BRK5 37-362, looked up)
chain: B1 chain
modifications: ATTO488 (NHS-ATTO488 label)
For B2, the binding result in series [1] is “binds”.
